Measurements: US11667714 (MERUS N V, dated 2023)

B1: MF6974 as a bivalent antibody (antibody, V domains shown)
VH: EVQLVESGGDLVQPGGSLRLSCAASGFTFNSYAMSWVRQAPGKGLEWVSTISGGGANIYYADSVKGRFTISRDNSKSTLYLQMNSLRAEDTAVYFCASPYGSGYFDVWGQGTLVTVSS
VL: not shown
notes: bivalent anti-PD-1 IgG; copies: 2 + 2
B2: MF5359xMF1337 PD-L1xTT bispecific IgG (PD-L1 monovalent) (bispecific antibody, V domains shown)
VH 1: EVQLVQSGAEVKKPGSSVKVSCKASGDTFNTYSITWVRQAPGQGLEWMGSIVPIFGTINNAQKFQGRVTITADKSANTAYMELSSLRSEDTAVYYCARDNTMVRGVDYYYMDVWGKGTMVTVSS
VH 2: not shown
VL: not shown
B3: MF5382xMF1337 PD-L1xTT bispecific IgG (PD-L1 monovalent) (bispecific antibody, V domains shown)
VH 1: EVQLVQSGAEVKNPGSSVKVSCKATGGTFNTYGTNWVRQAPGQGLEWMGGIIPIFGTANYAQKFQGRVTITADKSTTTAYMEVSSLRSEDTAVYYCARGGADMGTLDYWGQGTLVTVSS
VH 2: not shown
VL: not shown
B4: MF5557xMF1337 PD-L1xTT bispecific IgG (PD-L1 monovalent) (bispecific antibody, V domains shown)
VH 1: QVQLVQSGAEVKRPGSSVKVSCKASGGTFNTYSITWVRQAPGQGLEWMGGIIPVFGTSKYAQKFQDRVTITADKSTNTAYMELSSLRSEDTAVYYCARDPSFSSSSGWFDPWGQGTLVTVSS
VH 2: not shown
VL: not shown
B5: MF5576xMF1337 PD-L1xTT bispecific IgG (PD-L1 monovalent) (bispecific antibody, V domains shown)
VH 1: QVQLVQSGSELKKPGASVKVSCKASGYTFTSHAMNWVRQAPGQGLEWMGWINPNTGNPTYAQGFTGRFVFSLDTSVSTAYLQISSLKAEDTAVYYCAIDRGYMSNWVFAEYFPHWGQGTLVTVSS
VL: not shown
VH 2: not shown
B6: parental anti-PD-1 IgG PG7686 (antibody, V domains shown)
VH: QVQLVQSGAEVKKPGSSMKVSCKASGGSFSSAVISWVRQAPGQGLEWMGMIIPVFDTASYAKKFQGRVTITADKSTNTVYMELSRLRSEDAAVYYCARGTVEATLLFDYWGRGTLVTVSS
VL: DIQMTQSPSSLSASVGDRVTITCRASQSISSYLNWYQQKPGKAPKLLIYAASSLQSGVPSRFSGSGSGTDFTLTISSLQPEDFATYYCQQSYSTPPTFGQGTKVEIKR
notes: bivalent monospecific IgG; also called MF7686 in bivalent IgG format; copies: 2 + 2
B7: PG7689 (antibody, V domains shown)
VH: QVQLVQSGAEVKKPGSSVRVSCKASGGTFNTYAINWVRQAPGQGLEWVGRIIPIFGTANYAQKFQGRVTISADKSTTTAYMELSSLRSEDTAVFYCAKDETGYSSSNFQHWGRGTLVTVSS
VL: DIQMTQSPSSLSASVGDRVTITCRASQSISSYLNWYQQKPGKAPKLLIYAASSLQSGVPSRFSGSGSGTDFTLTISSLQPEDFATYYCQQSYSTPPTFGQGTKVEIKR
notes: also called parental anti-PD-L1 IgG of MF6974xMF7689; MF7689 in bivalent IgG format

How the values were obtained:
[1] = target: T1, PD-1 on activated human T cells (human, UniProt Q15116 25-288); experiment: FACS on anti-CD3 activated human T cells, goat anti-human IgG-PE, MFI [lower panel]
T1 construct: whole, on cells

[2] = target: PD-L1 on CHO cells expressing PD-L1 and a T cell activator (Promega) (UniProt Q9NZQ7 19-290); experiment: cell-based or functional assay
[3] = target: T2, PD-L1 on activated human T cells (human, UniProt Q9NZQ7 19-290); experiment: FACS on anti-CD3 activated human T cells, goat anti-human IgG-PE, MFI [upper panel]
T2 construct: whole, on cells
T2 sequence (Q9NZQ7 19-290): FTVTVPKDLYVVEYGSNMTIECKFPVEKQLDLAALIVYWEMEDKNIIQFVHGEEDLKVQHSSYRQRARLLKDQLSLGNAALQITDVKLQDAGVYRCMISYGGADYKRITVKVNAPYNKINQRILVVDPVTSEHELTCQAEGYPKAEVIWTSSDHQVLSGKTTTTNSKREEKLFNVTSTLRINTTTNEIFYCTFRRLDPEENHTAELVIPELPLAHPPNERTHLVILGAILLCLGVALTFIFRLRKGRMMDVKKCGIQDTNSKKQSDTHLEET

Sequence of PD-L1 on CHO cells expressing PD-L1 and a T cell activator (Promega) (Q9NZQ7 19-290): as above
T1 sequence (Q15116 25-288): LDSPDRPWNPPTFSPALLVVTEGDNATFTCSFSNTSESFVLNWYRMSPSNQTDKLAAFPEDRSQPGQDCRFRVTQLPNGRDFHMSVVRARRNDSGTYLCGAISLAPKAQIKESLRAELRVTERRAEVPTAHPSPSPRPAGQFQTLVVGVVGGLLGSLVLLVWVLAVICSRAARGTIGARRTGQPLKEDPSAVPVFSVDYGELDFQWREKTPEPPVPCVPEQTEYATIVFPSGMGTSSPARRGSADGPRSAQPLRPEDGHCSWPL

Row | Binder | AUC (PD-1/PD-L1 blockade reporter assay, monovalent) [2] | further results
1 | B1 |  | EC50 (read off the curve) [1]: ~0.05 µg/mL
2 | B2 | 3.9 | 
3 | B3 | 2.9 | 
4 | B4 | 3.4 | 
5 | B5 | 4.1 | 
6 | B6 |  | EC50 (read off the curve) [1]: ~0.04 µg/mL
7 | B7 |  | EC50 (read off the curve) [3]: ~0.04 µg/mL
